# Measurements reported in article PMC7060540.
# Molecular target: HIS-CbuHMGA (Catalpa bungei)
# Assay: BLI; Octet QK (Forte-Bio); GST-CbuSPL9 at 2381, 1191, 595.3, 297.6 and 148.8 nM on HIS-CbuHMGA; which protein was immobilised, buffer and temperature not told
substance,measurement,value
GST-CbuSPL9 (natural protein),Kd,0.311 µM
